Experiments:
[1] = target: CTLA-4 (coated for ELISA) (UniProt P16410); assay: ELISA; CTLA-4 (5 μg/mL) coated on 384-well plate; purified MBP–peptide–His-tag fusion in 15-point two-fold dilution from 14 μM to 0.85 nM in PBS with 0.5% BSA, 1 h; detected with anti-FLAG M2 peroxidase antibody; EC50 = midpoint concentration
[2] = target: CTLA-4 of the CTLA-4:B7-1[Biotinylated] Inhibitor Screening Assay kit (UniProt P16410); assay: ELISA; CTLA-4:B7-1[Biotinylated] Inhibitor Screening Assay kit (BPS Bioscience) with the MBP–peptide–His-tag fusion protein; data not shown
[3] = target: CTLA-4 (coated for ELISA), P16410; assay: ELISA; details: chain shown with the change; CTLA-4 coated at 5 μg/mL on the ELISA plate
Sequence of CTLA-4 (coated for ELISA), P16410 (P16410 36-161): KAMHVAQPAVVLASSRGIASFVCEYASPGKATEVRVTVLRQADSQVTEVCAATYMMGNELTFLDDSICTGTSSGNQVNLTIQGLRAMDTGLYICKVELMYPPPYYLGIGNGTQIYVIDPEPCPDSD

| Binder | EC50 [1] [nM] | IC50 [2] [nM] | EC50 [3] [nM] |
| --- | --- | --- | --- |
| CMHPFLPIVSHHFCER [MBP–C4m-3127 peptide–His-tag fusion protein] | 74.7 | 1360 |  |
| CLHPFLPIVSHHFCGR [MBP–C4-302–His-tag fusion protein M1L; L6P; V7I; G(+2)R] |  |  | 81.8 |

— article PMC9784018, “Rational Strategy for Designing Peptidomimetic Small Molecules Based on Cyclic Peptides Targeting Protein–Protein Interaction between CTLA-4 and B7-1” (Pharmaceuticals, 2022)
